Measured values: paper PMC7267745, “Histidine-Rich Glycoprotein Inhibits High-Mobility Group Box-1-Mediated Pathways in Vascular Endothelial Cells through CLEC-1A” (iScience, 2020)
Values belong to the binder of their own block, whether it stands above or below them.

Tests used:
[1] = molecular target: T1, Histidine-rich glycoprotein (HRG), purified from human plasma (human, UniProt P04196 19-525); assay: SPR
T1 chain: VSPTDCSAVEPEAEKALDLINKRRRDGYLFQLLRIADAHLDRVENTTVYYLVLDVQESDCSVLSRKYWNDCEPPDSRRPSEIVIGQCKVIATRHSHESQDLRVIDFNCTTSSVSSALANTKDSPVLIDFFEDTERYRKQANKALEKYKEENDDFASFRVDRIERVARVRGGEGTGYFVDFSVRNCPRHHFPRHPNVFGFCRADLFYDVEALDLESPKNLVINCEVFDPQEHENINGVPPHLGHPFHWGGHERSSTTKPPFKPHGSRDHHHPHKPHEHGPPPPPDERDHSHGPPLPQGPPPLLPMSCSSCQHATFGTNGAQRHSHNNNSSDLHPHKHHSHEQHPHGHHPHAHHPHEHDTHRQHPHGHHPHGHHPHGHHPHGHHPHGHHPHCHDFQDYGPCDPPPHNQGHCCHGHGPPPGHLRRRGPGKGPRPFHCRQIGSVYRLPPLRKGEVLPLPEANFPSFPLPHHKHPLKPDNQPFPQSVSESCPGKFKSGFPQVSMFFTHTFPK

[2] = molecular target: T2, Histidine-rich glycoprotein (HRG), purified from human plasma (human, UniProt P04196 19-525); assay: SPR; BIAcore; exCLEC-1A-Fc fusion protein immobilised on a CM5 sensor chip; HRG flowed over; conditions: both partners purified
T2 construct: histidine-rich glycoprotein, human, 75 kDa plasma protein; source: purified from human plasma
T2 sequence (looked up): T1 chain

[3] = molecular target: T2, Histidine-rich glycoprotein (HRG), …; assay: SPR; BIAcore; HRG purified from human plasma (5 μg/mL) immobilised on a CM5 chip; exCLEC-1A-Fc (3.125, 6.25, 12.5 or 25 μg/mL) or human recombinant exCLEC-1A flowed for 120 s; conditions: both partners purified

Kd [1]: 400 nM
B1: human recombinant exCLEC-1A protein (domain or fragment)
chain: QYYQLSNTGQDTISQMEERLGNTSQELQSLQVQNIKLAGSLQHVAEKLCRELYNKAGAHRCSPCTEQWKWHGDNCYQFYKDSKSWEDCKYFCLSENSTMLKINKQEDLEFAASQSYSEFFYSYWTGLLRPDSGKAWLWMDGTPFTSELFHIIIDVTSPRSRDCVAILNGMIFSKDCKELKRCVCERRAGMVKPESLHVPPETLGEGD

Kd [2]: 10 nM | Kd [3]: 7 nM
B2: extracellular domain of CLEC-1A-Fc (exCLEC-1A-Fc) fusion protein (Fc fusion, UniProt Q8NC01 74-280, looked up)
chain: B1 chain
notes: extracellular domain of CLEC-1A; Source, limits and the kind of Fc are told only in the Transparent Methods (Document S1), if at all
